# Test results published in FireProtDB (doi:10.1038/9384).
# Conditions: Bos taurus; pH 5.3; 5 °C; GdnHCl; Fluorescence; Sodium acetate 0.02 M; whole UniProt chain shown
protein,measurement,value
"Acyl-CoA-binding protein wild type, P07107 (protein) MSQAEFDKAAEEVKHLKTKPADEEMLFIYSHYKQATVGDINTERPGMLDFKGKAKWDAWNELKGTSKEDAMKAYIDKVEELKKKYGI",denaturant m value,3.53 kcal/mol/M
same,unfolding free energy,8.08 kcal/mol
